What was measured:
[1] = target: T1, SYNE3 peptide on HLA-A*02:01 (human); assay: killing
T1 peptide: KLLDLQVRV

[2] = target: T2, GRP78 peptide on HLA-A*02:01 (human); assay: killing
T2 peptide: KVTHAVVTV

[3] = target: T3, MIA3 peptide on HLA-A*02:01 (human); assay: killing
T3 peptide: KVLDKVFRA

[4] = target: T4, TP2 peptide on HLA-A*02:01 (human); assay: killing
T4 peptide: KILEDVVGV

[5] = target: T5, NSD1 peptide on HLA-A*02:01 (human); assay: killing
T5 peptide: KVQEQVHKV

[6] = target: T6, HNRNPR peptide on HLA-A*02:01 (human); assay: killing
T6 peptide: KVWGNVVTV

[7] = target: T7, MAGE-A4 (100% identical in MAGEA8) peptide on HLA-A*02:07 (human); assay: killing
T7 peptide: KVLEHVVRV

[8] = target: T8, PSME2 peptide on HLA-A*02:01 (human); assay: killing
T8 peptide: KVLERVNAV

[9] = target: T9, RG1L peptide on HLA-A*02:01 (human); assay: killing
T9 peptide: FLLETVVRV

[10] = target: T10, MADD peptide on HLA-A*02:01 (human); assay: killing
T10 peptide: ILLEHKVVL

[11] = target: T11, CNOT1 peptide on HLA-A*02:01 (human); assay: killing
T11 peptide: KVLGIVVGV

[12] = target: T12, TSC1 peptide on HLA-A*02:01 (human); assay: killing
T12 peptide: SLLGHVIRL

[13] = target: T13, TRMT1L peptide on HLA-A*02:01 (human); assay: killing
T13 peptide: VALEHFVLV

[14] = target: T14, HTR5A peptide on HLA-A*02:01 (human); assay: killing
T14 peptide: KVLETLVTV

[15] = target: T15, KIAA1033 peptide on HLA-A*02:01 (human); assay: killing
T15 peptide: KVLNKVITV

[16] = target: T16, PTRF peptide on HLA-A*02:01 (human); assay: killing
T16 peptide: KLLEKVRKV

[17] = target: T17, HERC4 peptide on HLA-A*02:01 (human); assay: killing
T17 peptide: KVLEILHRV

[18] = target: T18, MAGE-A4 (100% identical in MAGEA8) peptide on HLA-A*02:05 (human); assay: killing
T18 peptide: KVLEHVVRV

[19] = target: T19, ANO5 peptide on HLA-A*02:01 (human); assay: killing
T19 peptide: IVMEHVVFL

[20] = target: T20, GPC5 peptide on HLA-A*02:01 (human); assay: killing
T20 peptide: KLLEQVNRI

[21] = target: T21, ATAD2 peptide on HLA-A*02:01 (human); assay: killing
T21 peptide: KILEALQRV

[22] = target: T22, AXIN1 peptide on HLA-A*02:01 (human); assay: killing
T22 peptide: ILDEHVQRV

[23] = target: T23, MAGE-A4 (100% identical in MAGEA8) peptide on HLA-A*02:01 (human); assay: cells that express the antigen: NCI-H1755; TCR-Ts of three donors; full-length, on cells
T23 peptide: KVLEHVVRV

B1: TCR3 of Tables 1A and 1B (TCR2 of the examples) (TCR, V domains shown)
Valpha: GESVGLHLPTLSVQEGDNSIINCAYSNSASDYFIWYKQESGKGPQFIIDIRSNMDKRQGQRVTVLLNKTVKHLSLQIAATQPGDSAVYFCAEASPRQDTGRRALTFGSGTRLQVQP
Vbeta: DAGVTQSPTHLIKTRGQQVTLRCSPKSGHDTVSWYQQALGQGPQFIFQYYEEEERQRGNFPDRFSGHQFPNYSSELNVNALLLGDSALYLCASSLWTGSGELFFGEGSRLTVL
binding result [1]: no recognition | binding result [2]: no recognition | binding result [3]: no recognition | binding result [4]: no recognition | binding result [5]: no recognition | binding result [6]: no recognition | binding result [7]: recognises | binding result [8]: no recognition | binding result [9]: no recognition | binding result [10]: no recognition | binding result [11]: no recognition | binding result [12]: no recognition | binding result [13]: no recognition | binding result [14]: no recognition | binding result [15]: no recognition | binding result [16]: no recognition | binding result [17]: no recognition | binding result [18]: recognises | binding result [19]: no recognition | binding result [20]: no recognition | binding result [21]: no recognition | binding result [22]: no recognition | E:T EC50 [23]: 0.01 effector:target ratio
